# Patent US20160091498
# Molecular target: purified histone H4 (New England Biolabs), P62805
protein,measurement,value
purified ACK1 (protein) GEGPLQSLTCLIGEKDLRLLEKLGDGSFGVVRRGEWDAPSGKTVSVAVKCLKPDVLSQPEAMDDFIREVNAMHSLDHRNLIRLYGVVLTPPMKMVTELAPLGSLLDRLRKHQGHFLLGTLSRYAVQVAEGMGYLESKRFIHRDLAARNLLLATRDLVKIGDFGLMRALPQNDDHYVMQEHRKVPFAWCAPESLKTRTFSHASDTWMFGVTLWEMFTYGQEPWIGLNGSQILHKIDKEGERLPRPEDCPQDIYNVMVQCWAHKPEDRPTFVALRDFLLEAQPTDMRALQDFEEPDKLHIQMNDVITVIEGRAENYWWRGQNTRTLCVGPFPRNVVTSVAGLSAQDISQPLQNSFIHTGHGDSDPRHCW,"in vitro kinase assay with all the four core histones, immunoblotting with pY88-H4 antibodies",Presence of band exclusively when ACK1 was incubated with H4
same,"in vitro kinase assay, immunoblotting with pY88-H4 and pTyr antibodies",indeed H4 is directly Tyr-phosphorylated by ACK1
